The source of these data is paper PMC10937788 (Plant Molecular Biology, 2024).

In one data set the target is T1, SyArgG (Synechocystis sp. PCC 6803, UniProt P77973).
T1 construct: gene argG; synthetic ORF in pGEX-6P-1 (BamHI-XhoI); GST-tagged, tag kept (eluted with glutathione, no cleavage described); expressed in E. coli BL21(DE3)
T1 sequence (P77973 1-400): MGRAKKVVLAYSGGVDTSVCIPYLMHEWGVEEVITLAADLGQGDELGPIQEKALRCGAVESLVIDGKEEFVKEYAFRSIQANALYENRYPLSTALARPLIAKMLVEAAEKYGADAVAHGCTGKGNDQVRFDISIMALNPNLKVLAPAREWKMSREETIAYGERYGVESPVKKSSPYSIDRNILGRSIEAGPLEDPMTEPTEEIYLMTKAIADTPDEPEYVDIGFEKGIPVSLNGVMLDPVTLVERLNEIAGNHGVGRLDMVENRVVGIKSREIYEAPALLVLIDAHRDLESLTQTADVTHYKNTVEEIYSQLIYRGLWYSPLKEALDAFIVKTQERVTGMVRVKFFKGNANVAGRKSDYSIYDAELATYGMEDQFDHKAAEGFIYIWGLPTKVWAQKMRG
Kind of data set: coupled NADH oxidation assay (myokinase, pyruvate kinase, lactate dehydrogenase), […] nm. The class given is biochemical. As to conditions: read-out: % residual activity at 5 mM.

Substrate in data set [1]: N[C@@H](CC(=O)O)C(=O)O
Kind of data set: purified protein. Particulars: 38 °C, pH 9.0 Tris-HCl, 5 mM MgCl2, 2 mM KCl, co-substrates 7.5 mM citrulline, 1 mM ATP.

Substrate in data set [2]: Nc1ncnc2c1ncn2[C@@H]1O[C@H](COP(=O)(O)OP(=O)(O)OP(=O)(O)O)[C@@H](O)[C@H]1O
The experiment in a line: purified protein. It is filed as biochemical, Synechocystis sp. PCC 6803. Particulars: 38 °C, pH 9.0 Tris-HCl, 5 mM MgCl2, 2 mM KCl, co-substrates 7.5 mM citrulline, 7.5 mM aspartate.

Substrate in data set [3]: NC(=O)NCCC[C@H](N)C(=O)O
Kind of data set: purified protein. It is filed as biochemical, Synechocystis sp. PCC 6803. As to conditions: 38 °C, pH 9.0 Tris-HCl, 5 mM MgCl2, 2 mM KCl, co-substrates 7.5 mM aspartate, 1 mM ATP.

On to `NCCC[C@H](N)C(=O)O` [ornithine], for which, on SyArgG, the remaining activity at 5000 µM was found to be 80.1%.

For `NCCCC[C@H](N)C(=O)O` [lysin], the remaining activity at 5000 µM at SyArgG came to 78.1%.

As for `O=C(O)CCC(=O)O` [succinate], the remaining activity at 5000 µM at SyArgG came out at 92.1%.

Take `N=C(N)NCCC[C@H](N)C(=O)O` [arginine]: at SyArgG, the remaining activity at 5000 µM turned out to be 18.4%.

B1: SyArgG (Synechocystis sp. PCC 6803 substr. Kazusa) (protein)
chain: T1 sequence (P77973 1-400)
notes: synthetic ORF in pGEX-6P-1 (BamHI-XhoI); GST-tagged, tag kept (eluted with glutathione, no cleavage described); expressed in E. coli BL21(DE3)
Consider B1, for which, in “purified protein [1]”, the Michaelis constant (Km) – broadly, the concentration of substrate that gives half-maximal velocity – stood at 360 ± 40 µM; the kcat – broadly, the number of substrate molecules converted per active site and unit of time at saturation – stood at 0.77 s⁻¹; the specificity constant (kcat/Km) (usually the turnover number divided by the Michaelis constant) came out at 2160 M⁻¹ s⁻¹. Besides, in “purified protein [2]”, the Michaelis-Menten constant (Km) was found to be 260 ± 10 µM, the kcat came out at 0.7 ± 0.002 s⁻¹ and the kcat/Km came out at 2750 ± 120 M⁻¹ s⁻¹. Besides, in the data set “purified protein [3]”, the Km amounted to 350 ± 10 µM, the kcat is 0.69 ± 0.01 s⁻¹ and the kcat/Km came out at 1970 ± 50 M⁻¹ s⁻¹.
